What was measured:
Test in all cases: pull-down
GST tagged Pom1^FL = molecular target: T1, GST tagged Pom1^FL (S. pombe, UniProt Q09690 1-1087)
T1 sequence (looked up): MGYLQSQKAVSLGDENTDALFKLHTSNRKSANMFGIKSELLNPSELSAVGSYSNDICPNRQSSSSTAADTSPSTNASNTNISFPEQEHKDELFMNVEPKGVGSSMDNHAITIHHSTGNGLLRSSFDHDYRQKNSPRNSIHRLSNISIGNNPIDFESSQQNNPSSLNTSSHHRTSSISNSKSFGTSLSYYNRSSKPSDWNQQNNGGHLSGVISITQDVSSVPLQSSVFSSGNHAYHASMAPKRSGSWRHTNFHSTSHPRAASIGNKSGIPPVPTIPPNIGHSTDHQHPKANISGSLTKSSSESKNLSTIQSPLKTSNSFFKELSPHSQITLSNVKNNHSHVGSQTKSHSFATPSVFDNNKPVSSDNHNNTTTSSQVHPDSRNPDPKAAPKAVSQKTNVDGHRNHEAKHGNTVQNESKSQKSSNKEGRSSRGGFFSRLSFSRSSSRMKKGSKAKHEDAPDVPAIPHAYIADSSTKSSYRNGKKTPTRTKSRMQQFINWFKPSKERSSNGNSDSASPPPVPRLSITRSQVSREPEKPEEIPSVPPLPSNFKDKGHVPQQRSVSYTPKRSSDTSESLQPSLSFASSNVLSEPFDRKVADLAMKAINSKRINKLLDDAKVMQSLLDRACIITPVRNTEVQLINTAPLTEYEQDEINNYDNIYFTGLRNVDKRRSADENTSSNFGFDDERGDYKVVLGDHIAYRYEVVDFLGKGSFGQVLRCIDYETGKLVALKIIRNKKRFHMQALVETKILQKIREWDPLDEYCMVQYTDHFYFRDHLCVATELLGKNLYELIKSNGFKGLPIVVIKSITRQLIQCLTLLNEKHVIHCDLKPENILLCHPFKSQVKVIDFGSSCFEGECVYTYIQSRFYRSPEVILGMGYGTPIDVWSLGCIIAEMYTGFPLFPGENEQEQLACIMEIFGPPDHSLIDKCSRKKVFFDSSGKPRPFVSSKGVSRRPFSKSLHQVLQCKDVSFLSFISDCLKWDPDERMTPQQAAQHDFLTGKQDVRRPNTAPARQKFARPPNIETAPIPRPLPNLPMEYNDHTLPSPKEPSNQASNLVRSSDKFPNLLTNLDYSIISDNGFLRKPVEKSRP

GST tagged Pom1^Δaa305N = molecular target: T2, GST tagged Pom1^Δaa305N (S. pombe, UniProt Q09690 306-1087)
T2 sequence (looked up): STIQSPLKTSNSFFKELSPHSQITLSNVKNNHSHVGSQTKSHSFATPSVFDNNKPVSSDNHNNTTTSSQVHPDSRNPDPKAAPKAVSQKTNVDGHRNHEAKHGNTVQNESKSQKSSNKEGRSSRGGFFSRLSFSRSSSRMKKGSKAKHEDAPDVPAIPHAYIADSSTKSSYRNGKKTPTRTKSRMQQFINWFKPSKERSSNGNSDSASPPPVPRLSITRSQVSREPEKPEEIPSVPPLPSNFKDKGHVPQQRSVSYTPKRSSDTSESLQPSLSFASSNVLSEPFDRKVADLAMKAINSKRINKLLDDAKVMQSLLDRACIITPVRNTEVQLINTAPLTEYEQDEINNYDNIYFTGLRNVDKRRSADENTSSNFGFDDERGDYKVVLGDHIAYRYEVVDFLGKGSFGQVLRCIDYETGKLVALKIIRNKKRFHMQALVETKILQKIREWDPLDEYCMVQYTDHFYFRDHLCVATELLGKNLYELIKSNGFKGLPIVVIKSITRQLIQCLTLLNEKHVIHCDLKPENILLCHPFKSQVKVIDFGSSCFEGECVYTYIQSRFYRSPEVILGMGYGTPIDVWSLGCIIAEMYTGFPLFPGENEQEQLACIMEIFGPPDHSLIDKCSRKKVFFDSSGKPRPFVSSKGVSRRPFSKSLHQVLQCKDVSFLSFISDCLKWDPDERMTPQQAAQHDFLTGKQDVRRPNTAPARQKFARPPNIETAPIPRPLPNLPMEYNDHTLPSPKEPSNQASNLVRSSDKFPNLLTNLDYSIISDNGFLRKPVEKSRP

[1] = molecular target: T3, GST tagged Pom1^aa605-1087 (S. pombe, UniProt Q09690 605-1087)
T3 sequence (looked up): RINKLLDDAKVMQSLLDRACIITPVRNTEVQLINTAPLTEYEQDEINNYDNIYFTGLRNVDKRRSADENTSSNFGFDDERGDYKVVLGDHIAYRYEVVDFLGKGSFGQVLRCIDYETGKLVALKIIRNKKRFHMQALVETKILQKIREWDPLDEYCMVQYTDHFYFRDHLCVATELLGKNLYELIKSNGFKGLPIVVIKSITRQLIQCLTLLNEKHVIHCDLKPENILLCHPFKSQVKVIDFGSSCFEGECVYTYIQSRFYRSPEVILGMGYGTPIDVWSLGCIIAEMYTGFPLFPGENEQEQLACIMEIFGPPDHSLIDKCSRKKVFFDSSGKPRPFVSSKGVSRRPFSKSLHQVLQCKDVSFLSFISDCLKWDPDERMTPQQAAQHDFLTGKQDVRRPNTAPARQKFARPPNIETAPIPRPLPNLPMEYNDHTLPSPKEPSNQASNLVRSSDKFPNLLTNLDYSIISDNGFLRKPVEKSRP

Measured: binding result

B1: MBP-tagged Ptc1^FL (enzyme, S. pombe, UniProt P40371 1-347, looked up)
chain: MKGSHPNAGSLLEPLHKLNPFSENSTSGHRKNASDHSADGETRPIAIEMKDSKGNTVPVGNSRPSKASNWLAGLMEDKNQRWRRSMEDTHICLYDFGGNQDDGFVAVYDGHAGIQASDYCQKNLHKVLLEKVRNEPDRLVTDLMDETFVEVNSKIAKATHNDICGCTAAVAFFRYEKNRTRRVLYTANAGDARIVLCRDGKAIRLSYDHKGSDANESRRVTQLGGLMVQNRINGVLAVTRALGDTYLKELVSAHPFTTETRIWNGHDEFFIIACDGLWDVVSDQEAVDFVRNFVSPREAAVRLVEFALKRLSTDNITCIVVNLTRNPGDLDDSGLTADNDSYSNDYY
binds: GST tagged Pom1^FL | GST tagged Pom1^Δaa305N | [1]

From PMC8108516 (Molecular Biology of the Cell, 2021)
